Experimental findings from patent US20250250587A1 (published 2025) are described below.

The experiment deals with T1, Neo12 (neoantigen; source protein not named) peptide on HLA-A*02:01 (human).
T1 peptide: YLTHRVDVI
The experiment is described as follows: multimer staining.

B1: Neo12 neoTCR (TCR, V domains shown)
Valpha: QKEVEQDPGPLSVPEGAIVSLNCTYSNSAFQYFMWYRQYSRKGPELLMYTYSSGNKEDGRFTAQVDKSSKYISLFIRDSQPSDSATYLCAMSEDYKLSFGAGTTVTVRA
Vbeta: ETGVTQTPRHLVMGMTNKKSLKCEQHLGHNAMYWYKQSAKKPLELMFVYSLEERVENNSVPSRFSPECPNSSHLFLHLHTLQPEDSALYLCASSQSRGAQQYFGPGTRLTVT
In the case of B1, the binding result was “recognises”.
